The source of these data is PMC5061722.

What all share (assay): SEC
Test [1] has as its target truncated ΔN1-EpsE-Hcp1 fusion (pET21(d)epsE(100-503)-8aa-hcp1-his6) (UniProt P37093).
In test [2] the target is full-length EpsE-Hcp1 fusion (pET21(d)epsE(1-503)-8aa-hcp1-his6) (UniProt P37093).
Test [3] has as its target EpsE-XcpR CM-Hcp1 chimera fusion (UniProt P37093).

For “truncated ΔN1-EpsE-Hcp1 fusion (pET21(d)epsE(100-503)-8aa-hcp1-his6) (from UniProt P37093 100-503)”, the stoichiometry N (usually a count of units in the complex or per binding partner) in test [1] came out at 6.

Consider “full-length EpsE-Hcp1 fusion (pET21(d)epsE(1-503)-8aa-hcp1-his6) (from UniProt P37093 1-503)”, for which, in test [2], the stoichiometry N stood at 6. Substance “EpsE-XcpR CM-Hcp1 chimera fusion (from UniProt P37093)” displayed a stoichiometry N in test [3] of 6.
